# Assays:
# PUF variant QFR/VFQ = PUF variant QFR/VFQ (human, UniProt Q14671 828-1176, S863Q;R864F;Q867R;N899V;Y900F); assay: EMSA; 10 mM HEPES pH 7.3, 50 mM NaCl, 2 mM DTT, 0.05% Tween 20, 0.1 mg/ml BSA, 0.1 mg/ml yeast tRNA; ~10 nM RNA, 0-1 uM protein, 1 h on ice; 1.2% agarose gel, 1x TBE, room temperature; settings: protein: recombinant; tags: N-terminal GST (pGEX-6P-1) removed by HRV3C protease; label: 5' 32P
# PUF design 2 = PUF design 2 (human, UniProt Q14671 828-1176, C935T;R936H;Q939E;N971T;H972F;Q975R); assay: as above; settings: protein: recombinant; tags: N-terminal GST (pGEX-6P-1) removed by HRV3C protease; label: 5' 32P
# Chain of PUF design 2 (Q14671 828-1176 C935T/R936H/Q939E/N971T/H972F/Q975R): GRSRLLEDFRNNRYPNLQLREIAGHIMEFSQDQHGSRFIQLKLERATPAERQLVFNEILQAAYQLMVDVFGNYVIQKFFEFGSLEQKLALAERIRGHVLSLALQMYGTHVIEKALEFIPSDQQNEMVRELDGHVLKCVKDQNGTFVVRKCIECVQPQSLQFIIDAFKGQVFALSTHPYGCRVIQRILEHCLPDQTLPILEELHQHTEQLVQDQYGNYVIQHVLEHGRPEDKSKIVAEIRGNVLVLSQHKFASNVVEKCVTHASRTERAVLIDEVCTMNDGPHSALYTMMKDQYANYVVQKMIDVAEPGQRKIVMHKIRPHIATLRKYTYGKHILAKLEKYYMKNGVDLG
# Chain of PUF variant QFR/VFQ (Q14671 828-1176 S863Q/R864F/Q867R/N899V/Y900F): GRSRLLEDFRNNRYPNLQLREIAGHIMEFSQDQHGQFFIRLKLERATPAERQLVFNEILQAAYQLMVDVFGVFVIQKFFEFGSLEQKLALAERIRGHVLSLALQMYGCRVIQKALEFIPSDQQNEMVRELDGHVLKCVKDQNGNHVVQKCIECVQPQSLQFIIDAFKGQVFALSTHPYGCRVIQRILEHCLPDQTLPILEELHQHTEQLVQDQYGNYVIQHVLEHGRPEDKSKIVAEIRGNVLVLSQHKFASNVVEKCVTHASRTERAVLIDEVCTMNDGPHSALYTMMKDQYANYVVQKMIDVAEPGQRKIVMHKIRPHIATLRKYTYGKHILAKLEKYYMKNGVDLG
binder,measurement,setting,value
GGUAAGUGUAAAACGUCUGCAU (ssRNA) [QFR/VFQ target RNA],Kd,PUF variant QFR/VFQ,~110 nM
GGUAAGUGUACGUAGUCUGCAU (ssRNA) [design 2 target RNA],Kd,PUF design 2,~45 nM
GGUAAGUGUAAAUAGUCUGCAU (ssRNA) [wild-type NRE RNA],binding result,PUF variant QFR/VFQ,no binding
same,binding result,PUF design 2,no binding

# — publication PMC8384837, “Expanding the binding specificity for RNA recognition by a PUF domain”
